The text below walks through data of PMC13080021.

Like-named read-outs stand apart in the source and are kept apart here.

For assay [1], the target named is eGFP-tagged measles virus C protein, full length (human measles virus) (UniProt P03424). Kind of assay: MST.
Assay [2] has the same target. Kind of assay: MST. This is another data set of the same source.
Assay [3] addresses measles virus (MeV) phosphoprotein (P), optimized construct (human measles virus) (UniProt P03422). The assay is described as follows: cryo-EM structure.

Consider “measles virus (MeV) N protein, monomeric (N_ΔN-arm) (domain or fragment)”, for which the figures for the equilibrium dissociation constant (Kd) in assay [1] and in assay [2] were 4.57 µM and 3.92 µM, respectively.

“measles virus (MeV) phosphoprotein (P), optimized construct (from UniProt P03422 1-507) (natural protein)” gave a stoichiometry N in assay [3] of 4.
